Source: US20020169118A1 (Amgen, published 2002)

Molecular target: T1, TNF-β (lymphotoxin) (UniProt P01374 35-205, limits assumed)
T1 sequence (looked up): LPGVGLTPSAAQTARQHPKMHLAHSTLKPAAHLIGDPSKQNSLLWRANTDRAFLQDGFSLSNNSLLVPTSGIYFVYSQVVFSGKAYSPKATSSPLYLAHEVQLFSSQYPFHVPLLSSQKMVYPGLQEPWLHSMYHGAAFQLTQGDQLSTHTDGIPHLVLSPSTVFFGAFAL
Experiment: preliminary competition binding tests; reference TNF-α

B1: TNF-BP (TNF binding protein), natural, purified from dialyzed urine of uraemia patients (receptor)
chain: DSVCPQGKYIHPQNNSICCTKCHKGTYLYNDCPGPGQDTDCRECESGSFTASENHLRHCLSCSKCRKEMGQVEISSCTVDRDTVCGCRKNQYRHYWSENLFQCFNCSLCLNGTVHLSCQEKQNTVCTCHAGFFLRENECVSCSNCKKSLECTKLCLPQIEN
modifications: glycoprotein; Asn-25 glycosylated (numbering of the TNF-BP cDNA sequence, Leu-1 = first residue after the signal peptide)
notes: Soluble extracellular part of the human TNF receptor; The main form (about 80% of the protein) starts at Asp-12; also called natural TNF-BP
- affinity for TNF-β relative to its affinity for TNF-α: ~0.02 fold
